Source: US20130156786A1 (Sanofi, published 2013)
Where “and” joins values, the source holds several entries; their conditions need not be identical. Identical values can stand only once.

Experiments:
[1] = molecular target: T1, human α2β1 integrin on human platelets (human, UniProt P17301 30-1181; P05556 21-798); experiment: cell-based or functional assay
[2] = molecular target: T2, recombinantly expressed integrin α2β1 (human, UniProt P17301 30-1132; P05556 21-728, limits assumed); experiment: solid phase assay: inhibition of biotinylated collagen binding to coated α2β1
T2 construct: The assay paragraph gives neither species nor construct limits; also called a2β1; recombinant α2 integrin

[3] = molecular target: T3, α2-I-domain GST aa 140-339 (human, UniProt P17301 169-368); experiment: solid phase assay: inhibition of biotinylated collagen binding to coated α2-I-domain
T3 construct: May be the same protein as m4; also called I-domain of integrin α2β1 integrin; not shown: GST
T3 sequence: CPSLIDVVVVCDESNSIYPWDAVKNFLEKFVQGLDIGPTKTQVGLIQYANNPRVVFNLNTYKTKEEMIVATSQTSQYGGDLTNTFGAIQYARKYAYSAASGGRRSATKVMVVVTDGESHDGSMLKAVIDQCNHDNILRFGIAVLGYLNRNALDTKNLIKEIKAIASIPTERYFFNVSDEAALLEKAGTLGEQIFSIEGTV
Protocol: For the Solid Phase Assay, integrin (α₂-I-domain: α₂-I-domain GST aa 140-339 in TBS/5 mM Mn²⁺, 50 μl/well) was immobilized on 96-well plate (Corning Costar, 3690), at room temperature overnight. Then, 25 μl/well of blocking solution (5% BSA (crude) (A7906), 1×TBS) were added and discarded. 200 μl/well of blocking solution were added and left for 3 h at room temperature. After a washing step (3 times with 200 μl/well binding buffer: 1×TBS and 0.1% BSA (A7638) and 2 mM Mn²⁺; TBS: 150 mM NaCl, 25 mM Tris (Fluka 93371) pH7.4), samples were incubated at RT for 3 h stationary with 50 μl of:
After a washing step (3 times with 200 μl/well binding buffer), samples were incubated with 50 μl/well ExtrAvidin Peroxidase (Peroxidase conjugate, Sigma E2886; 1:500 in binding buffer) for 30 min at RT and again washed 4 times with 200 μl/well binding buffer. […]

[4] = molecular target: T4, human integrin α2 I domain, recombinantly expressed in E. coli (human, UniProt P17301 169-368, limits assumed); experiment: SPR Biacore 3000, antibody immobilised by amine coupling, I-domain as analyte, 1:1 model with mass transfer
T4 construct: Analyte of the Biacore experiments; also called integrin α2β1 I-domain; integrin I-domain
T4 sequence: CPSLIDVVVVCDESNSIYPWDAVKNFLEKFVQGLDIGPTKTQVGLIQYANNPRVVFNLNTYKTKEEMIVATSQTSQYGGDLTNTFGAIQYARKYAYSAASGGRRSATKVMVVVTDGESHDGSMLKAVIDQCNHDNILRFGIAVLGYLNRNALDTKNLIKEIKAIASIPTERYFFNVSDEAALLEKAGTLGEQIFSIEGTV
Excerpt: (§1) Surface plasmon resonance technology on a Biacore 3000 (GE Healthcare) was used for detailed kinetic characterisation of the purified antibody and the corresponding Fab fragment. A direct binding assay was used with the anti-integrin antibody or the Fab fragment as the ligand and the integrin α2β1 I-domain as analyte. Typically, 600 RU of antibody or Fab fragment were immobilised on a research grade CMS chip by amine reactive coupling, resulting in an Rmax of 80 and 140 RU for the I domain bound to the antibody and the Fab fragment, respectively. Binding kinetics were measured over a concentration range between 0.4 to 28 nM I-domain in HBS-P buffer supplemented with 4 mM MgCl2 (10 mM HEPES pH 7.4, 150 mM NaCl, 0.005% Surfactant P20) at a flow rate of 30 μl/min. Chip surfaces were regenerated with 10 mM glycine pH 2.2. Kinetic parameters were analysed and calculated in the BIAevaluation program package (version 4.1) using a flow cell without immobilised anti-integrin antibody or Fab fragment as reference. A 1:1 binding model with mass transfer was applied for a global fit of the data for curves corresponding to analyte concentrations from 0.4-28 nM […].

[5] = molecular target: T1, human α2β1 integrin on human platelets; experiment: cell-based or functional assay; remark: listed apart in the source
[6] = molecular target: T1, human α2β1 integrin on human platelets; experiment: cell-based or functional assay; remark: listed apart in the source
[7] = molecular target: T2, recombinantly expressed integrin α2β1; experiment: solid phase assay: inhibition of biotinylated collagen binding to coated α2β1, 4% HSA
[8] = molecular target: T4, human integrin α2 I domain, …; experiment: SPR Biacore 3000, Fab immobilised by amine coupling, I-domain as analyte, 1:1 model with mass transfer
Excerpt: as §1

T1 sequence (P17301 30-1181 limits assumed, chain 1 of 2): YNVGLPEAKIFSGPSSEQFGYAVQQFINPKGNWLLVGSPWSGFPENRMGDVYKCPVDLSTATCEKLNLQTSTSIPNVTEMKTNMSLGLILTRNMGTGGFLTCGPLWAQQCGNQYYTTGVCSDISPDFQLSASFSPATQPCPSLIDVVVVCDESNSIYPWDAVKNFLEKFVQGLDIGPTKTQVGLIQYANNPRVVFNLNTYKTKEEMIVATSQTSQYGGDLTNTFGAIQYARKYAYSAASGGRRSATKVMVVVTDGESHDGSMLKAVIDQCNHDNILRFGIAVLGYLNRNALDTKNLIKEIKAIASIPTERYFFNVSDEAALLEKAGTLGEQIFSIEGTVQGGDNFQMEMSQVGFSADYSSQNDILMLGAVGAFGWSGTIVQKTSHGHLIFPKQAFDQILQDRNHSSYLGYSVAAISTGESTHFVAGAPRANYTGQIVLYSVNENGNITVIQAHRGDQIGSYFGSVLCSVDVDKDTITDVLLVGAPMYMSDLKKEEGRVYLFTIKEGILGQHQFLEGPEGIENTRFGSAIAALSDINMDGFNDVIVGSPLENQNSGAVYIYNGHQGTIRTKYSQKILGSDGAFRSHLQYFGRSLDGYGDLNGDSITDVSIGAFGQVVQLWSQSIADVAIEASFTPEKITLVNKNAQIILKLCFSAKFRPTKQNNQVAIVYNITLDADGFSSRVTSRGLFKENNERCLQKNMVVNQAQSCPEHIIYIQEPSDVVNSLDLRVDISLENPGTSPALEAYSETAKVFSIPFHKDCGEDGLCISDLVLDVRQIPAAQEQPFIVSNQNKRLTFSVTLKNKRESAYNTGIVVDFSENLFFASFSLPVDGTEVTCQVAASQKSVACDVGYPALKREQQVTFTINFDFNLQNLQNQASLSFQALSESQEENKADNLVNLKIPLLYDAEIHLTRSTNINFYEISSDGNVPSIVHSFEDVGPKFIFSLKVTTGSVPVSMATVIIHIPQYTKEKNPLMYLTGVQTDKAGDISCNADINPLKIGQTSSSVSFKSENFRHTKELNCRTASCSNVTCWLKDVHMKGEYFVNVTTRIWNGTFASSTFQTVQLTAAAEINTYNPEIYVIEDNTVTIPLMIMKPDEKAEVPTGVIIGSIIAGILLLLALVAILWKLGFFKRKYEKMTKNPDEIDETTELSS
T1 sequence (P05556 21-798 limits assumed, chain 2 of 2): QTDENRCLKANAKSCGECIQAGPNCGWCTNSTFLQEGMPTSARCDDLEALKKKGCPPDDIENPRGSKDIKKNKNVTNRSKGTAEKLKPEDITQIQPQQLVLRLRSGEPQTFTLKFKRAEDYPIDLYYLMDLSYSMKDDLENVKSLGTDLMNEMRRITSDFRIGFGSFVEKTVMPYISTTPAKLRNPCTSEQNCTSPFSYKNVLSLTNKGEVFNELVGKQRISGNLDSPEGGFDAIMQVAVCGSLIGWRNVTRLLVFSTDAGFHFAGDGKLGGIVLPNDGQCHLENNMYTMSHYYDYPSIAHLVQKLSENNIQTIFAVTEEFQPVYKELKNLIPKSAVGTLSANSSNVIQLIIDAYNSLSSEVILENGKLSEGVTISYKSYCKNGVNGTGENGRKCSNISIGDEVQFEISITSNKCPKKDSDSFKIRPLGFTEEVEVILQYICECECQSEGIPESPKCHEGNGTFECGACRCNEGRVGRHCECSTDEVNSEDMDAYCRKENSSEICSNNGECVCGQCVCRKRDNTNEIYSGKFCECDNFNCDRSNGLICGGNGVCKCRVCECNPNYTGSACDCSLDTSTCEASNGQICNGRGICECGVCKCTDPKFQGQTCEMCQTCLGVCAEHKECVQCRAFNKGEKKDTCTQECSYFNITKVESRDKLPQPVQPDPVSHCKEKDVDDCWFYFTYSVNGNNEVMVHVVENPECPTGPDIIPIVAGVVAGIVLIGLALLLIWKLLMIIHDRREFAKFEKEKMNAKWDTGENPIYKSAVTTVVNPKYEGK
T2 sequence (P17301 30-1132 limits assumed, chain 1 of 2): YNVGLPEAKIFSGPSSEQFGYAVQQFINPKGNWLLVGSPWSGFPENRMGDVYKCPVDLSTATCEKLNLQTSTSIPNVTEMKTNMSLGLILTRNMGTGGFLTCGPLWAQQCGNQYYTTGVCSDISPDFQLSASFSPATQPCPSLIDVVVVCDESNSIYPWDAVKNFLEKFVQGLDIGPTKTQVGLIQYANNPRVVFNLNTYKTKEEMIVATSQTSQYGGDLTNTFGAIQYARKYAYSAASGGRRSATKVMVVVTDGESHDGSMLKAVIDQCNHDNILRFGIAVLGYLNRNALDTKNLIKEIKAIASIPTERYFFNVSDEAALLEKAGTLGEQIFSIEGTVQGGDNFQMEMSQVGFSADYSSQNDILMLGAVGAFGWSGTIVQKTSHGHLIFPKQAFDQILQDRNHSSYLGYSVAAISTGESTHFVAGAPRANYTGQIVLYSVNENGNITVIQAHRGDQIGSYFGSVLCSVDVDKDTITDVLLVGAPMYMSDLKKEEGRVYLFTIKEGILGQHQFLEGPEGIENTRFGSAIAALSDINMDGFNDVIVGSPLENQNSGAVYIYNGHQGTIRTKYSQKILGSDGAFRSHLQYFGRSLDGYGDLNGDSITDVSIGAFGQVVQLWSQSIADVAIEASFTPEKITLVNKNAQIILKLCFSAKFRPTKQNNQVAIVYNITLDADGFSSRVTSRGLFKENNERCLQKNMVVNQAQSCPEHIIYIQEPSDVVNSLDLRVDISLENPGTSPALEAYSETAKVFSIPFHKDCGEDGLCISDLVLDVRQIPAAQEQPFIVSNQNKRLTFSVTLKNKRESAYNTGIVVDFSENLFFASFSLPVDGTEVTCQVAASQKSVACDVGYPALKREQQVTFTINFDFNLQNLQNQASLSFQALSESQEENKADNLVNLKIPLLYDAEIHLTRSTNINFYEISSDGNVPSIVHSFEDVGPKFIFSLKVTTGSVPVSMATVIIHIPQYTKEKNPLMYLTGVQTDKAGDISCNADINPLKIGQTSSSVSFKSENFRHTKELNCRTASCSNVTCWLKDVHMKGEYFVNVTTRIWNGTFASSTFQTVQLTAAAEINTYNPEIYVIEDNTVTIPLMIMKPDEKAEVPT
T2 sequence (P05556 21-728 limits assumed, chain 2 of 2): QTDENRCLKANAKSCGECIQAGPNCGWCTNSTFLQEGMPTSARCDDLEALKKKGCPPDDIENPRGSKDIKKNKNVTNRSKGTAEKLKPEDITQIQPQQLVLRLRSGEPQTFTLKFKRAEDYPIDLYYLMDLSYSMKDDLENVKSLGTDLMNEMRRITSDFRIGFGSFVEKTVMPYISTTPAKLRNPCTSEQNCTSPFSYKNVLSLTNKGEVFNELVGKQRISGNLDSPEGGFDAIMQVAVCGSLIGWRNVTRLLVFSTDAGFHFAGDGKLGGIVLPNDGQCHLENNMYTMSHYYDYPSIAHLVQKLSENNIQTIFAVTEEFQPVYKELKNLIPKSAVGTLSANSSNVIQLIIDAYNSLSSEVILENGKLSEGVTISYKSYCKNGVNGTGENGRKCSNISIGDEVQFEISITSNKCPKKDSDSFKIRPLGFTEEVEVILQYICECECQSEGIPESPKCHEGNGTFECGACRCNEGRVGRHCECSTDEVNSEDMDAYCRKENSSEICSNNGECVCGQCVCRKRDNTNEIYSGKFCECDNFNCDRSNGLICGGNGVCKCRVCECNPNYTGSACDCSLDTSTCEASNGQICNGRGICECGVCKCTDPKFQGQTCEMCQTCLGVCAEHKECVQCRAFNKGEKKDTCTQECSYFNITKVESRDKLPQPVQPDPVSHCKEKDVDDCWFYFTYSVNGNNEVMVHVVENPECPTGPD

Binder	Inhibition of binding of washed platelets to collagen, IC50 [5] [µg/mL]	Inhibition of binding of platelets to collagen in platelet rich plasma, MW IC50 [6] [µg/mL]	further results
chimeric anti α2-integrin-IgG4 (murine variable domains on human IGKC and mutated human IGHG4) (antibody, Expressed in HEK 293-FS; also called IgG4 mAb; Antibody) heavy: not shown light: NIVLTQSPASLAVSLGQRATISCRASESVESYGNSFIYWYQQKPGQAPKLLIYLASNLASGVPARFSGSGSRTDFTLTIDPVEADDAATYYCQQNNEDPYTFGGGTKLEIKRTVAAPSVFIFPPSDEQLKSGTASVVCLLNNFYPREAKVQWKVDNALQSGNSQESVTEQDSKDSTYSLSSTLTLSKADYEKHKVYACEVTHQGLSSPVTKSFNRGEC	–	–	Static human platelet adhesion to collagen (PRP), IC50 [1]: 0.3 µg/mL and 6.7 nM; Static human platelet adhesion to collagen (washed plt), IC50 [1]: 0.017 µg/mL and 0.1 nM; IC50 [2]: 0.05 µg/mL and 0.3 nM; IC50 [3]: 0.2 µg/mL and 1.5 nM; Kd [4]: 1.35 nM; koff [4]: 0.00117 s⁻¹; kon [4]: 860000 M⁻¹ s⁻¹
humanized anti-α2-integrin mAb LC5/HC7 (antibody, IgG4, V domains shown) VH: QVQLVQSGAEVKKPGASVKVSCKASGYTFTSYWMNWVRQAPGQGLEWIGRIDPSDSETHYAQKFQGRATLTVDKSTSTAYMELSSLRSEDTAVYYCAKVGRGYFDYWGQGTLVTVSS VL: NIVLTQSPASLAVSPGQRATITCRASESVESYGNSFIYWYQQKPGQPPKLLIYLASNLASGVPARFSGSGSRTDFTLTINPVEADDTANYYCQQNNEDPYTFGGGTKLEIK	0.031	0.224	–
chimeric anti α2-integrin-Fab (6xHis tagged CH1 of human IGHG1) (Fab, V domains shown, also called Fab fragment; Fab frament) VH: QVQLHQPGAELVKPGAPVKLSCKASGYTFTSYWMNWVKQRPGRGLEWIGRIDPSDSETHYNQKFKDKATLTVDKSSSTAYIQLSSLTSEDSAVYYCAKVGRGYFDYWGQGTTLTVSS VL: NIVLTQSPASLAVSLGQRATISCRASESVESYGNSFIYWYQQKPGQAPKLLIYLASNLASGVPARFSGSGSRTDFTLTIDPVEADDAATYYCQQNNEDPYTFGGGTKLEIKR	–	–	Human platelet adhesion to collagen under shear (whole blood) 3000 s-1, IC50 [1]: 1.3 nM and 0.06 µg/mL; Static human platelet adhesion to collagen (PRP), IC50 [1]: 0.3 µg/mL and 6.7 nM; Static human platelet adhesion to collagen (washed plt), IC50 [1]: 0.04 µg/mL and 0.8 nM; IC50 [2]: 0.2 µg/mL and 4.2 nM; IC50 [7]: 0.4 µg/mL and 8.2 nM; Kd [8]: 0.84 nM; koff [8]: 0.00083 s⁻¹; kon [8]: 990000 M⁻¹ s⁻¹
humanized anti-α2-integrin mAb LC3/HC3 (antibody, IgG4, V domains shown) VH: QVQLHQPGAELVKPGASVKLSCKASGYTFTSYWMNWVKQRPGRGLEWIGRIDPSDSETHYNQKFKDKATLTVDKSSSTAYIQLSSLTSEDSAVYYCAKVGRGYFDYWGQGTTLTVVS VL: NIVLTQSPSSLSVSVGQRATISCRASESVESYGNSFIYWYQQKPGQAPKLLIYLASNLASGVPARFSGSGSRTDFTLTIDPVQAEDAATYYCQQNNEDPYTFGGGTKLEIK	0.012	0.132	–
humanized anti-α2-integrin mAb LC3/HC4 (antibody, IgG4, V domains shown) VH: QVQLHQPGAELVKPGASVKLSCKASGYTFTSYWMNWVKQRPGRGLEWIGRIDPSDSETHYNQKFKDKATLTVDKSSSTAYIQLSSLTSEDSAKYYCAKVGRGYFDYWGQGTTLTVVS VL: NIVLTQSPSSLSVSVGQRATISCRASESVESYGNSFIYWYQQKPGQAPKLLIYLASNLASGVPARFSGSGSRTDFTLTIDPVQAEDAATYYCQQNNEDPYTFGGGTKLEIK	0.016	0.193	–
humanized anti-α2-integrin mAb LC4/HC6 (antibody, IgG4, V domains shown) VH: QVQLHQPGAELVKPGASVKLSCKASGYTFTSYWMNWVKQRPGRGLEWIGRIDPSESETHYNQKFKDKATLTVDKSSSTAYIQLSSLTSEDSAKYYCAKVGRGYFDYWGQGTTLTVVS VL: NIVLTQSPSSLSVSVGQRATISCRASESVESYGQSFIYWYQQKPGQAPKLLIYLASNLASGVPARFSGSGSRTDFTLTIDPVQAEDAATYYCQQNNEDPYTFGGGTKLEIK	0.068	4.11	–
humanized anti-α2-integrin mAb LC4/HC5 (antibody, IgG4, V domains shown) VH: QVQLHQPGAELVKPGASVKLSCKASGYTFTSYWMNWVKQRPGRGLEWIGRIDPSESETHYNQKFKDKATLTVDKSSSTAYIQLSSLTSEDSAVYYCAKVGRGYFDYWGQGTTLTVVS VL: NIVLTQSPSSLSVSVGQRATISCRASESVESYGQSFIYWYQQKPGQAPKLLIYLASNLASGVPARFSGSGSRTDFTLTIDPVQAEDAATYYCQQNNEDPYTFGGGTKLEIK	0.057	3.25	–
humanized anti-α2-integrin mAb LC1/HC1 (antibody, IgG4, V domains shown) VH: QVQLHQPGAELVKPGAPVKLSCKASGYTFTSYWMNWVKQRPGQGLEWIGRIDPSDSETHYNQKFKDRATLTVDKSSSTAYIQLSSLTSEDSAVYYCAKVGRGYFDYWGQGTTLTVVS VL: NIVLTQSPSSLAVSVGQRATISCRASESVESYGNSFIYWYQQKPGKAPKLLIYLASNLASGVPARFSGSGSRTDFTLTIDPVQADDAATYYCQQNNEDPYTFGGGTKLEIK	0.021	0.277	–
humanized anti-α2-integrin mAb LC2/HC2 (antibody, IgG4, V domains shown) VH: QVQLHQPGAELVKPGAPVKLSCKASGYTFTSYWMNWVKQRPGQGLEWIGRIDPSESETHYNQKFKDRATLTVDKSSSTAYIQLSSLTSEDSAVYYCAKVGRGYFDYWGQGTTLTVVS VL: NIVLTQSPSSLAVSVGQRATISCRASESVESYGQSFIYWYQQKPGKAPKLLIYLASNLASGVPARFSGSGSRTDFTLTIDPVQADDAATYYCQQNNEDPYTFGGGTKLEIK	0.092	3.96	–
TMC2206, humanized hIgG4 anti-alpha 2 integrin antibody (comparator) (antibody, V domains shown) VH: QVQLQESGPGLVKPSETLSLTCTVSGFSLTNYGIHWIRQPPGKGLEWLGVIWARGFTNYNSALMSRLTISKDNSKNQVSLKLSSVTAADTAVYYCARANDGVYYAMDYWGQGTLVTVSS VL: DFVMTQSPAFLSVTPGEKVTITCSAQSSVNYIHWYQQKPDQAPKKLIYDTSKLASGVPSRFSGSGSGTDYTFTISSLEAEDAATYYCQQWTTNPLTFGQGTKVEIKR	0.023	0.11	–
